Data reported in article PMC6372703, “A thermostable laccase from Thermus sp. 2.9 and its potential for delignification of Eucalyptus biomass” (AMB Express, 2019).

Tested on: CCn1c(=NN=c2sc3cc(S(=O)(=O)O)ccc3n2CC)sc2cc(S(=O)(=O)O)ccc21
Test: purified protein
Details: 20 mM sodium acetate, pH 5, 60 °C, 1 mM CuSO4

Substance: LAC_2.9 (Thermus sp. 2.9)
- Km: 590 ± 80 µM
- kcat: 1 ± 0.04 s⁻¹
- kcat/Km: 1700 ± 200 M⁻¹ s⁻¹
